Results from the domain aggregation screens of Martell et al. (2025).

experiment: soluble fraction after stress (log2 fold change); higher = more stays soluble; pooled small domains, quantitative proteomics; conditions: stress: pH 4
Outline: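 High-throughput quantitative proteomics was run on pooled custom libraries of small protein domains following pH 4 stress. Fold changes are on a log2 scale; higher values mean more of a domain remained soluble. The fold change in soluble amount is taken as a measure of aggregation propensity.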

| Sequence | soluble fraction (log2) |
| --- | --- |
| HMQNNIEFTVLEEDAQKRLDVLLSEKTALSRSASASLIEEGGVLVNGRKEPKKYKPVRGEIITAILPE | -0.549 |
| HMQNNTIAFSKFLQEVDNGRVVQVEIQGNNINGILSDGSKFNTYSPNYPALVEKLSEKNVNIVASPV | 0.385 |
| HMQNPDHLLALAAAAQAAIELGRPDEAEAYYRHLVEVYGVEMASQKPEYLDHSGITNDLRNVAEGFLVG | -1.32 |
| HMQNRIVNTTQGLAADKRGLLVADETGHTTRPGIFASGDVVNGARTVVEAVAHSKIVAESMHQYMQ | ≥ 0.43 |
| HMQNSLKAFRVKRGLTTSALSRLTNGEFSTSRISNYETGVRALTIDAAKKLAPHLGASPAQLLNL | 0.371 |
| HMQNSPVFAASDIEDIRVGMTVEHQRFGQGRVMSIEGNGPNKKTTVLFEGIGEKQLLLQYAKLKIV | -0.242 |
| HMQNYLLFEEAKNIVNTLNLTNEKDWSEFIKKDFTYKNQIPIFPNQYYKHKGWVDWNDWLGINK | -1.62 |
| HMQNYTTIIGVIELRLNDISYDNVRKRYHIGRSGITLIMDRYRDSGLSLEDLKQMTPEKVVDLFYPR | 0.0145 |
| HMQPAALEAQVIKLVRLHAPIKARQLATILANEFGQHVDRSTVNSLLYQLRAQGKVAQNAAYQWSLT | -0.0984 |
| HMQPEKELAPLIGQRVSVRLHDGDGGYRDLLGELESPDSIRKKNGEIAFFDPAKIAALRVVV | 0.326 |
| HMQPGDRVDALIVGVSGEHVFLDVGGKSEGVMAAAELRNEAGELSAAEGDRVQVYLLSNRNGELIFTA | -0.283 |
| HMQPHLSADEEHLLKILGSDTMHIDALVKRSTLETSNALAALAFLEMKGLVKNIGNMHYIRTYR | -0.518 |
| HMQPIAVHIGTENPMKSLSDLSVVRAQFTSGGRVIGSVAVLGPTRMQYSRIVGMMRFMQQRLDLLLKG | -0.0772 |
| HMQPKKLNMYYDYVRQLLESHPYLSAAQIEDRLKEEFTELPMVHSKTVFNFVENIRLQHGINKHA | 0.0853 |
| HMQPLRQGDFVTSEVVKVQDGTAVLRTAQGTLLSASLTGNLGLLPGDRVETVVVEASPGRFVLRVLDIIR | -0.266 |
| HMQPPLTPRELGVLQWAAEGKTTRDTSAILQIHQRTVEMHLKSAREKLDALNTTHAVARALAHGFILPPS | 0.102 |
| HMQPPVDGNEIMEIFGIKGSPVIGVIKSTIKNAILDGIIAPNDREAALELMFRIADENGLKPVVTQTQ | -0.855 |
| HMQPRYMLIKTAILDAIERGEMKPGSQVPSENQLAQQHNVSRMTARRALSEMVDDGILMRSQGIGTFVSD | -0.591 |
| HMQPSFFEMIRMVESYIKQHFENVGNEFPEIARAIYYGIEEERNIYGTASREDMEELLDEGIPILPVP | -0.937 |
| HMQPVEHLPTTDPLTTSAASEHERYEKVRWWLEEMQRTYETGDEVRAERIRLSLIEQMYKWEGE | -1.09 |
| HMQPYTYNPNFLSDYRAYSLGIPLEAYDKLVQFRASGSFVNSMSDFQKITGVSDSLLAVLHSKFRYPK | -0.602 |
| HMQQELEEMESGNLVRTAIDSLPINQRTAFILSAYEELPIKEIASIMNRSEGAVEQLLQRAKMNLKKKIK | -0.0659 |
| HMQQLTDRELEVLRLLAAGLSNNKIGEKLYISATTAKFHVSNIMRKLEVSRRAEAVYAASKRGL | -0.587 |

| Sequence | soluble fraction (log2) |
| --- | --- |
| HMQQLTQRELTLLRLLANGYNNRQIAEQLQLAESTVKNNLSALFQKIGVRDRTQAVLFAISQGLVP | -0.462 |
| HMQQNDMTELRALAEKIISENDSVINDYKSGQGSALQFLIGQAMKETKGSANPQVISEIFTDLL | -0.548 |
| HMQQPIPGEAYLTRRPGSDHFQIAFTIDGHRVRESSGTSDKVAAAALAQKRYEEVWREIKLGEK | -0.0232 |
| HMQQPVAYSEFVQSVNDRQIREAQIQGERIVATDNNGNRMTVIWPENDTKLLDELVQNGVLTSIQE | -0.675 |
| HMQQVDWGSVFGDFGTMFKDQLQPTIDRLRRMAQSDTFRQSSLEEQQILYSLIEKLERSGTA | -2.1 |
| HMQQVIEGLDSDRDFITVPEAIALFAVGRQTLYHYIRSGKIPSVNLGQRLTRLSKKQLGELFPLR | -0.287 |
| HMQRGRTFSIVLNWKGRLLSTQMFFPQFTRPTKEQVTFEINKVYPGAMVYYYNPIEKDPSQPLV | 0.0658 |
| HMQRLSRREIEVLHWIAEGKSDWQIGQILSISAKTVNYHTENLKRKFGVATRMQAVVSAIKQGAFVPGE | -1.31 |
| HMQRVSDKVAAQLRVLVQEQQLKPGDRLPAERALAVQLGVSRTALREAIAQLASQGLLTARVGGGTYVAEP | 0.22 |
| HMQRYVVDENLKLDKKDINHIINVMRLNVNDQIKLINNGTIYDAIITKIEKNNVLYEIIKKEESK | -0.809 |
| HMQSANQLIKLSRKRKGLTQQELADQAGVSLRTVQRIEKGTEEISGFSLKQISQILEIPLEQLIM | -0.652 |
| HMQSLDGPSRAAIVLMAIGPDVAGELIKSFSPAEAQKVSSLLATVRSLDREVMIEVLDSFKNITEH | -0.5 |
| HMQSLPFSFAKRHGVLLKSINHLHGEAVYRIGANPLSLSEVQRYAGVPLKLSSITVEKFDRLLQETYEHD | -0.436 |
| HMQSLSDQVFFYLKERIINNEMVPGSIISIEKLTSEFGISNTPVREAIVRLAGLDLVTIHRNKNITVS | -0.707 |
| HMQSMSADDWSEKARVLMSAGIIVMGQEAKEKILNLKSLVPLIEAASASNVSMIDSRTFDELLMIIP | -2 |
| HMQSREISYSEFVTAVEAGDVRNVTLDGEQVRFRRADGSDYVTIRPEDAEVTKLLMANDIPVRAEP | -0.198 |
| HMQSRRTPASLVERVRQLNGQYQDKEIAELLNREGIKTAHGNEFNAKRIEMIRRHNGISKHSAQ | -0.0944 |
| HMQSSTAISFNQFQKSWLSNNIKSFQLGEDKMTVRGSLKNGTQYETIVPSERLFQFIGQHPKDGQVQEMY | ≥ 0.43 |
| HMQSTEQVSVTVTIPPGGELRIDSDTFRVLLNGENVLDKQSGDWLMLSRDLLYLDIESAIGNGLSGNLIYT | -0.143 |
| HMQSVEELLDAIGDERLLHILLEADRKTLQIVVLKMMGYAPKEIGSHIGMPEQTVYTKLRRLREKIKKI | -1.07 |
| HMQSYHVGDKVTIKNSASHWATGQSIYNGVKGHTYKIIQTNGHKLLLDQVISWINDGDVYKAGS | 0.0872 |
| HMQSYSTIIGVIELRLSGIGYRTTKARYGIGNSTVTLIMNRFKETGFTLDDLKTMEPTKVEALFYPP | -0.229 |
| HMQSYSYYDFQKALQNKTVESVIIEPDKTVPTGTLQIQLKGDTKEELNVSDVTEVEELLQSYDVDYKLRSV | 0.0751 |

| Sequence | soluble fraction (log2) |
| --- | --- |
| HMQTASVRFADGQLEVKQKGLQRVSVYSLNGMTVANKAVQGQDYVTISLPRAAYIVKITTQNGSFTKVI | 0.218 |
| HMQTGRREALEAQLRETGGEAMLARLREIDPEAAARLHPADEKRVIRALEVYEETGKTITQHNLETKAVPP | -0.0698 |
| HMQTKEVDYGTFMSMIDEKNIGTVEIGDSQIVFTDKDNKNLYETGVMNDPDLAQRLHDAGATFSS | 0.0149 |
| HMQTLQTTSLRVSENQLFILDQQALPQEKRWLAADNVALLVDHIHTLRVRGAPLIGLSASLLLALLAGRLT | -0.764 |
| HMQTMNKTNISNFEKYLNSGDVSEVIVVRNKSSVRVTLTPEALRSSEHQAVVGKNILGQENIKGPHYQFEV | 0.138 |
| HMQTPPGRYRHYKGGLYEVIATARHSETLEPMTVYRALYGEQGLWVRPAAMFAEDITLEGVRQPRFARI | -1.27 |
| HMQTRIDISDAVLQWVVRKTQFAALPPKAAAHLTKWVRGEKKPTFNQLEEVSKATGIPLGYFFLQQPPHE | -0.561 |
| HMQTTEDMEINAKVDEYLREMYLWNDEYKTLNLDHNKGYEDFFYDALGSMTTNTLDKKTYVGSDGKTYYNL | -0.933 |
| HMQTYTYYIAKNDISIGQKITPDMLIEKQVNLGDSKDRYLSREQLETGKYIAVRQIPAGELISSASANE | 0.0749 |
| HMQVAPQVERLLRVMGNETLSLSDIMGRMGLSDKKNFRESYLVPALRSAVIEMTIPDKPNSSLQKYRRIHE | -0.125 |
| HMQVEEKNKKIELYIEGKIKELESNLMYVPNENKKKLLMAFMNRNEDIEIIKTKIDTIFNKSVAAYKENM | -0.894 |
| HMQVIDNHWRPSRDALDILLRDGISEHFIEDAIPEFILYWRERGTQDSNWNSRFLQHIRLQWARYTNAV | -0.936 |
| HMQVPDLYRTLGVGRDATTEAIEAAYVGWQARLSAGEPISTQEWERLRYAHEVLSNPQRRSLYDSLVAET | 0.0568 |
| HMQVPVNVSMEILDWVIAHIKIDALPNQIREYLNLWVNGEKEPTFNQVEKVSKATGIPLGYFFLQTPPIED | -1.33 |
| HMQVQHVWNRLKRPNGDVLYEINRDHPLVSASLDAAADRGAIETLLRQIEQSLPVNQLYVDMNADEHFE | -0.812 |
| HMQVSDAAQLAEVVKTVLAENPAAVGDYRKGKKAAIGFLLGQVMRHMRGTANPAVARQLLEQALEDE | 0.231 |
| HMQVSDLSAIDSLIDKVLSEQQAAVQDFRSGQGKAMGFLIGKVMQASDGKANPKVIRELMGKKLA | -0.0313 |
| HMQVSIGERVKLARMSAGLNQRQLGKEMGMSAMAISKYETGEVVPNSRVLIQLSQTLHVPLDFFFRS | 0.0627 |
| HMQVTDADFDQIRLAVLSQLKQNSLTVAELLKIIPFKEQKVMPVIRFLIDNRVLEHGTDMKLTVGNSVK | -0.34 |
| HMQVTIGADLAEHAARLDVQISDVVKLIKSGVSEGEIKVGLTKLETRLAHPELALVENKLAYLKALIAES | -0.79 |
| HMQYALEDDLDSAIKLLTGKGLSGTVAWGWSDTYINVGKKSYSMEFIAKMLLRLGEGSRVTIQVDPA | -1.28 |
| HMQYIINFEYSGMLLREYLRGVLGLSHGTLTALKKDPLGILLNGEHATVRAVLHAGDRLTLALE | -1.13 |
| HMQYKVMDVTVDGNPVIEFQNLNSKIKWIENNPDAIIQNIKTSSFEADQKRIVGTSRGPFWIVIKPDF | -0.299 |
